Reference: patent US20030129638A1, “Reagents for antagonizing the protein-protein interaction between Raf-1 and apoptosis signal-regulating kinase and uses therefor” (priority 2001, published 2003)
Blank lines part the entries; values can stand above or below the molecule they belong to.

Assays:
ERK1/2 activation = test: Western blot of ERK1/2 activation in HeLa cell lysates; format: cell-based, human; conditions: HeLa cells, 60 μM
Method: Cell lysates from HeLa cells treated with 60 μM PD98059 or vehicle were probed by Western blotting with either an ERK1/2 activation-specific antibody (Upper; Cell Signaling Technology) or pan-ERK1/2 antibody (Lower; Cell Signaling Technology).
To test the hypothesis that Raf-1 regulates ASK1-induced apoptosis through the MEK-ERK pathway, we used two widely used MEK antagonists, PD98059 and U0126 (Dudley et al. (1995) Proc. Natl. Acad. Sci. USA 92:7686-7689; Favata et al. (1998) J. Biol. Chem. 273:18623-18632). […] To confirm the observations with PD98059 and U0126, we used a dominant negative mutant of MEK1, MEK1dn, to interfere with MEK signaling (Sugimoto et al. (1998) EMBO J. 17:1717-1727).

[1] = system: ASK1-induced apoptosis in HeLa cells; test: β-gal cell morphology-based apoptosis assay: effect of MEK inhibition on Raf-1 inhibition of ASK1-induced cell death; parameters: species or system human; conditions: PD98059 60 μM for 18 h
Method: FIG. 2B is a graphic summary of the effect of MEK inhibition by PD98059 on Raf-1 function. Six hours after transfection as in A, HeLa cells were treated with PD98059 (60 μM) or vehicle (DMSO) for 18 h before being stained with 5-bromo-4-chloro-3-indolyl-D-galactopyranoside and scored for apoptosis in a blind fashion. Specific apoptosis is derived by subtracting the level of apoptosis seen in pcDNA3-transfected cells. At least 500 cells were scored for each sample. Results shown are representative of three independent experiments.
For the nuclear morphology assays (Zhang et al. (1999) Proc. Natl. Acad. Sci. USA 96:8511-8515), 2×10^5 HeLa cells were cultured in 35-mm dishes containing glass coverslips. […] Twenty-four hours later, cells on the glass coverslips were washed, fixed (0.5% glutaraldehyde/2% formaldehyde in PBS), stained with 4′,6-diamidino-2-phenylindole (DAPI) in Vectashield mounting medium (Vector Laboratories), and visualized by using a fluorescence microscope as described (Zhang et al. (1999) Proc. Natl. Acad. Sci. USA, 96:8511-8515). Transfected cells with fragmented nuclei were scored for apoptosis in a blind fashion. […] Twenty-four hours after transfection, cells were fixed, stained with 5-bromo-4-chloro-3-indolyl-β-D-galactopyranoside, and scored for apoptosis as described (Chang et al. (1998) Science 281:1860-1863). […]

[2] = system: Raf-1 prosurvival effects on ASK1-induced cell death in COS7 cells; test: DNA content-based flow cytometric apoptosis assay (sub-G0 fraction) in transfected COS7 cells; format: cell-based; conditions: COS7 cells cotransfected with HA-ASK1, Flag-Raf-1 and ASK1 truncation construct (0.3 μg), FIG. 8
Method: FIG. 8 provides a graphic representation of data obtained from a DNA content-based flow cytometric apoptosis assay. The fraction of transfected cells with sub-G0 DNA content in each sample was quantified. The data presented are representative of three independent experiments.
The DNA content-based apoptosis assay was performed with a fluorescence-activated cell sorter as described (Spector et al. (1997) Cells: A Laboratory Manual (Cold Spring Harbor Lab. Press, Plainview, N.Y.). Briefly, COS7 cells (2×10^5) were cotransfected with pEGFP-F (0.4 μg; CLONTECH) encoding a farnesylated eGFP and test plasmids (1.6 μg total). Twenty-four hours after transfection, total cells were trypsinized, resuspended in PBS, fixed in ice-cold ethanol followed by overnight incubation, treated with RNase A (Sigma-Aldrich), and stained with propidium iodide (Sigma-Aldrich). Samples were analyzed with a FACSort flow cytometer (Becton Dickinson). The DNA content of transfected cells was determined by using WINMDI 2.8 software (Trotter, Scripps Research Institute, La Jolla, Calif.).
A DNA content-based flow cytometric apoptosis assay was performed to evaluate the effects of the ASK1 N-terminal domain truncation peptides on the prosurvival effects of Raf-1. COS7 cells were transfected with indicated plasmids encoding HA-ASK1 (1.0 μg), Flag-Raf-1 (0.3 μg) or ASK1 truncation constructs (0.3 μg) as indicated along with an EGFP-F expression vector (0.4 μg) as described.

[3] = target: T1, protein-protein interaction between Raf-1 and ASK1 (Homo sapiens, UniProt P04049); test: Coimmunoprecipitation with anti-Raf-1 antibody and Western blot for ASK1 in transfectants expressing ASK1 N-terminal domain fusion peptides; format: cell-based; conditions: fusion peptide expressed in cells, FIG. 7
T1 construct: expressed in transfected cells; host or cells: COS7
Method: FIG. 7 is a Western blot analysis of Raf-1 immunoprecipitates obtained from transfectants comprising N-terminal domain truncation peptides.
(§1) Forty-eight hours after transfection, 4×10^5 COS7 cells were lysed in 300 μl of lysis buffer (0.2% Nonidet P-40/10 mM Hepes, pH 7.4/150 mM NaCl/5 mM NaF/2 mM Na3VO4/5 mM Na4P2O7/10 μg/ml aprotonin/10 μg/ml leupeptin/1 mM phenylmethylsulfonyl fluoride). Cell extracts were clarified by centrifugation and used for immunoprecipitation with various antibodies and protein G-Sepharose (Amersham Pharmacia). Immunocomplexes were washed four times with lysis buffer containing 1% Nonidet P-40 or RIPA buffer (1% Nonidet P-40/0.5% sodium deoxycholate/0.1% SDS/137 mM NaCl/20 mM Tris.HCl, pH 7.5) and resolved on SDS/PAGE (12.5%) for Western blotting. The enzyme-linked immunoblotting procedures were performed essentially as described (Zhang et al. (1999) Proc. Natl. Acad. Sci. USA 96:8511-8515). Corresponding secondary antibodies were used against each primary antibody: horseradish peroxidase-conjugated goat anti-mouse IgG for monoclonal antibodies and horseradish peroxidase-conjugated goat anti-rabbit IgG for polyclonal antibodies (Santa Cruz Biotechnology). Cross-reacting materials were visualized by using the ECL detection reagents (Amersham Pharmacia).
Coimmunoprecipitation experiments were performed using anti-Raf-1 antibody (RI9120, Transduction Laboratories) as described. […] Raf-1 immunoprecipitates were analyzed with antibodies specific for ASK1 and Raf-1 (upper panel). HA-ASK1 protein present in Raf-1 immunoprecipitates was probed with anti-ASK1 antibody H-300 (1:2000, Santa Cruz;). […] The effect of this disruption is manifested as the absence of ASK1 protein in the Raf-1 immunoprecipitates.

Raf-1 = Raf-1 (Homo sapiens, UniProt P04049); test: Association of ASK1 N-terminal domain truncation peptides with Raf-1; format: binding; conditions: N-terminal domain fusion peptide
Method: FIG. 6A provides a schematic representation of the ASK1 N-terminal domain truncation proteins used herein. Association of ASK1 mutants with Raf-1 is summarized. Positive interaction is represented by (+).
as §1
FIG. 6A provides a schematic representation of the ASK1 N-terminal domain truncation peptides used herein. Various truncation mutants of the ASK1 N-terminal domain were generated as shown and expressed as fusion proteins with a (His)6-tag at the N-terminus and an HA-tag at the C-terminus, except ASK-N69-163 which has the N-terminal (His)6-tag but a GST-tag at the C-terminus. Association of ASK1 mutants with Raf-1 is summarized. Positive interaction is represented by (+).

Molecule: COc1cccc(-c2cc(=O)c3ccccc3o2)c1N [PD98059]
Activation of ERK1/2 (ERK1/2 activation): diminished the activation of ERK1/2
Effect on the ability of Raf-1 to inhibit ASK1-induced cell death [1]: did not decrease the ability of Raf-1 to inhibit ASK1-induced cell death

Binding to Raf-1 (Raf-1): ability to bind Raf-1
B1: SEQ ID NO:3: amino acid residues 6 to 230 of full-length human ASK1 (SEQ ID NO:1), expressed as a (His)6/HA-tagged fusion peptide (protein, UniProt Q99683 6-230, looked up, fragment)
chain: DEGITFSVPPFAPSGFCTIPEGGICRRGGAAAVGEGEEHQLPPPPPGSFWNVESAAAPGIGCPAATSSSSATRGRGSSVGGGSRRTTVAYVINEASQGQLVVAESEALQSLREACETVGATLETLHFGKLDFGETTVLDRFYNADIAVVEMSDAFRQPSLFYHLGVRESFSMANNIILYCDTNSDSLQSLKEIICQKNTMCTGNYTFVPYMITPHNKVYCCDSSF
modifications: His6/HA tag
Effect on Raf-1 prosurvival effects on ASK1-induced cell death [2]: eliminates Raf-1 prosurvival effects on ASK1-induced cell death
Disruption of the Raf-1/ASK1 interaction (ASK1 in Raf-1 immunoprecipitates) [3]: disrupts the protein-protein interaction between Raf-1 and ASK1

Binding to Raf-1 (Raf-1): ability to bind Raf-1
B2: SEQ ID NO:8: amino acid residues 69 to 230 of the full-length human ASK1 sequence set forth in SEQ ID NO:1 (protein, UniProt Q99683 69-230, looked up, fragment)
chain: AATSSSSATRGRGSSVGGGSRRTTVAYVINEASQGQLVVAESEALQSLREACETVGATLETLHFGKLDFGETTVLDRFYNADIAVVEMSDAFRQPSLFYHLGVRESFSMANNIILYCDTNSDSLQSLKEIICQKNTMCTGNYTFVPYMITPHNKVYCCDSSF
Effect on Raf-1 prosurvival effects on ASK1-induced cell death [2]: eliminates Raf-1 prosurvival effects on ASK1-induced cell death
Disruption of the Raf-1/ASK1 interaction (ASK1 in Raf-1 immunoprecipitates) [3]: disrupts the protein-protein interaction between Raf-1 and ASK1

Binding to Raf-1 (Raf-1): ability to bind Raf-1
B3: SEQ ID NO:7: amino acid residues 6 to 163 of the full-length human ASK1 sequence set forth in SEQ ID NO:1 (protein, UniProt Q99683 6-163, looked up, fragment)
chain: DEGITFSVPPFAPSGFCTIPEGGICRRGGAAAVGEGEEHQLPPPPPGSFWNVESAAAPGIGCPAATSSSSATRGRGSSVGGGSRRTTVAYVINEASQGQLVVAESEALQSLREACETVGATLETLHFGKLDFGETTVLDRFYNADIAVVEMSDAFRQP
Effect on Raf-1 prosurvival effects on ASK1-induced cell death [2]: eliminates Raf-1 prosurvival effects on ASK1-induced cell death
Disruption of the Raf-1/ASK1 interaction (ASK1 in Raf-1 immunoprecipitates) [3]: disrupts the protein-protein interaction between Raf-1 and ASK1
